B1: PTPRD (parent)
chain: ELDELLKEISRKRRSIRYGREVEL

Variants of: B1
Test: protein stability index of a GFP-peptide fusion (GPS, HEK-293T) (PSI 1-6); higher = more stable
Conditions: c terminus: a fixed tail appended
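Further: lentivirally expressed fusions sorted by FACS into six bins by GFP to DsRed ratio, PSI derived from sequencing read proportions per bin multiplied by bin number.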

Variant	protein stability index
L5A	3.07
L5H	4.08
L5S	3.6
L5N	2.69
L5K	3.61
L5I	2.45
L5C	3.12
L5Y	3.44
L5G	3.96
L5R	3.18
L5T	3.58
L5M	3.25
L5D	3.73
L5E	4.15
L5W	2.35
L5V	2.86
L5F	2.69
L5P	3.82
L5Q	4.14
L2V	2.43
L2Q	4.26
L2H	4.32
L2T	3.38
L2W	2.99

Variant	protein stability index
L2R	3.71
L2I	2.6
L2K	4.09
L2G	3.58
L2S	2.99
L2N	4.2
L2E	4.41
L2A	3.79
L2C	3.06
L2M	2.92
L2D	4.14
L2P	3.47
L2F	2.49
L2Y	3.54
Y18Q	2.43
Y18E	2.96
Y18L	2.59
Y18N	2.74
Y18F	2.33
Y18G	2.51
Y18R	2.33
Y18C	1.67
Y18M	2.22
Y18H	2.33

Variant	protein stability index
Y18S	2.91
Y18K	2.46
Y18D	2.6
Y18P	2.78
Y18I	2.35
Y18T	2.17
Y18A	2.13
R13T	2.28
R13S	3.25
R13C	1.8
R13P	3.3
R13H	2.14
R13A	2.38
R13V	1.55
R13F	2.06
R13E	3.07
R13N	3
R13D	4.49
R13Y	1.43
R13I	2.23
R13L	1.46
R13Q	2.36
R13M	2.21
R13G	2.96

Variant	protein stability index
R13K	2.54
R13W	1.72
K12F	1.29
K12E	2.32
K12P	2.53
K12I	1.66
K12V	2.23
K12A	1.99
K12D	2.39
K12C	2.49
K12S	2.63
K12G	2.26
K12W	1.66
K12H	2.03
K12M	2.11
K12Q	1.81
K12L	1.95
K12R	2.49
K12T	2.56
K12Y	1.55
I16A	1.9
I16P	2.43
I16V	2.35
I16G	3.21

Variant	protein stability index
I16R	1.72
I16F	1.81
I16L	2.42
I16Y	1.75
I16M	2.54
I16H	2.37
I16K	1.9
I16S	3.4
I16E	3.62
I16N	2.98
I16W	1.8
I16C	2.81
I16T	2.57
I16Q	3.12
R17M	2.12
R17N	2.75
R17Y	2.6
R17P	2.97
R17G	2.19
R17H	2.06
R17V	2.27
R17E	2.64
R17F	1.63
R17K	2.17

Variant	protein stability index
R17D	3.33
R17I	2.46
R17Q	2.68
R17C	2.34
R17T	2.15
R17L	2.55
R17S	2.44
R17A	2.39
R17W	1.85
D3H	2.48
D3C	1.73
D3N	3.35
D3G	1.67
D3Q	2.62
D3W	1.75
D3E	2.51
D3R	1.86
D3A	1.76
D3S	2.57
D3Y	2.12
D3I	3.46
D3T	1.8
D3L	1.63
D3K	2.38

Variant	protein stability index
D3F	2.12
D3P	2.26
D3M	1.65
I9C	2.54
I9E	4.46
I9A	3.14
I9R	3.72
I9W	2.89
I9T	3.97
I9D	3.98
I9K	3.96
I9Y	2.63
I9S	3.62
I9F	2.33
I9H	3.09
I9P	3.81
I9N	3.35
I9G	3.57
I9V	2.61
I9L	2.21
I9Q	4.18
I9M	2.64
S15D	1.91
S15R	2.22

Variant	protein stability index
S15L	2.04
S15W	1.59
S15T	2.99
S15Y	2.65
S15Q	3.4
S15P	2.6
S15H	2.89
S15E	2.65
S15V	2.29
S15F	2.27
S15I	2.29
S15A	2.45
S15K	1.88
S15N	2.65
S15G	2.44
S15M	2.54
E8G	2.86
E8Q	2.81
E8A	1.68
E8V	1.7
E8W	2.64
E8I	2.83
E8C	1.83
E8F	2

Variant	protein stability index
E8N	2.44
E8P	2.77
E8R	2.54
E8Y	1.88
E8S	2.45
E8D	2.92
E8L	2.03
E8T	2.79
E8K	3.79
E8H	1.99
E8M	2.37
R11V	3.18
R11T	3.21
R11Q	2.55
R11G	2.01
R11S	2.49
R11Y	2.62
R11L	3.04
R11H	2.45
R11C	2.94
R11F	2.76
R11A	2.01
R11K	1.84
R11D	4.06

Variant	protein stability index
R11W	2.3
R11I	2.45
R11N	2.34
R11P	3.04
R11E	3.19
R11M	2.15
S10A	2.44
S10F	1.78
S10I	2.09
S10M	2.24
S10G	2.44
S10W	1.48
S10R	2.48
S10K	2.17
S10Q	2.2
S10N	2.77
S10P	3.01
S10C	3.15
S10E	2.84
S10T	2.49
S10D	2.87
S10Y	2.06
S10V	2.48
S10H	2.68

Variant	protein stability index
S10L	1.41
L6P	4.08
L6T	3.92
L6A	3.65
L6Y	2.71
L6F	2.07
L6D	4.29
L6Q	3.73
L6E	4.28
L6W	1.5
L6N	3.81
L6K	3.92
L6M	2.68
L6S	3.98
L6I	1.93
L6V	3.8
L6C	3.29
L6H	3.19
L6G	4.21
L6R	3.76
R14F	1.96
R14T	2.38
R14S	2.9
R14G	3.16

Variant	protein stability index
R14A	2.02
R14M	2.03
R14Q	2.55
R14D	2.65
R14C	2.19
R14I	1.99
R14W	1.73
R14L	3.77
R14N	2.1
R14H	2.92
R14Y	1.66
R14P	2.64
R14E	2.73
R14V	2.42
R14K	2.39
E1S	4.1
E1N	2.56
E1R	2.17
E1I	1.77
E1V	1.93
E1G	2.52
E1A	2.54
E1K	2.26
E1C	2.07

Variant	protein stability index
E1M	2.73
E1T	3.25
E1W	2.69
E1D	2.3
E1P	3.07
E1L	1.98
E1Q	2.41
E1F	1.83
E1H	2.47
K7Y	2.77
K7W	2.19
K7C	2.33
K7G	2.54
K7H	2.4
K7F	2
K7D	3.25
K7E	3.1
K7V	2.07
K7R	2.27
K7P	3.12
K7Q	2.46
K7T	3.09
K7M	2.26
K7N	2.16

Variant	protein stability index
K7A	2.83
K7I	2.27
K7S	2.6
K7L	2.72
E4L	2.19
E4S	1.85
E4Q	1.99
E4V	1.94
E4A	3.26
E4W	2.29
E4R	2.16
E4F	2.39
E4K	2.59
E4H	2.6
E4P	2.48
E4M	1.9
E4I	1.73
E4D	2.07
E4C	1.57
E4T	1.88
E4Y	1.27
E4G	3.34
